The labels stand for the following.
T1: CX3CR1 (residues 1 to 315; I120L, L176C, C221S, M250V) as it stands in construct-2 (human, UniProt P49238 1-315, I120^3.43L | L176^ECL2C | C221^ICL3S | M250^6.54V)
T1 construct: CX3CR1, human, residues 1 to 315; Not a free protein: the receptor part of the fusion m2; Written alone for the pair CX3CL1 with CX3CR1; source: HighFive insect cells, part of the fusion construct-2, purified as complex (Strep-Tactin, SEC); not shown: Twin-Strep-tag, C-terminal, kept
T1 sequence (looked up): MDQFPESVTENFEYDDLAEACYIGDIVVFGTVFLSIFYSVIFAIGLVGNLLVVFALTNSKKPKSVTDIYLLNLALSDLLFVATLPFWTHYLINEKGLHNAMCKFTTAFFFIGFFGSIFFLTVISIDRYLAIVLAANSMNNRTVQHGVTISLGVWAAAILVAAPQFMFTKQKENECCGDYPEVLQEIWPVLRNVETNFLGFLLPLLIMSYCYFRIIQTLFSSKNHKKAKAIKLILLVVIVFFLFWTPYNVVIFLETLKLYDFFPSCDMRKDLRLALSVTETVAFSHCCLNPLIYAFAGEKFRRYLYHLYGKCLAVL

T2: Modified CX3CL1-CX3CR1 fusion followed by the Twin-Strep-Tag at the C terminus ( | human, UniProt P78423 25-100; P49238 1-315, G35C | I120^3.43L | L176^ECL2C | C221^ICL3S | M250^6.54V, pyroglutamate at residue 1 of CX3CL1 (pE1); disulfide between G35C of CX3CL1 and L176C of CX3CR1)
T2 construct: CX3CL1 chemokine domain, residues 1 to 76; numbers count on: the mature protein (pE1 is residue 1); 28-residue linker (14 × Gly-Ser); CX3CR1, human, residues 1 to 315, as in construct-1 with the additional L176C; A signal peptide before CX3CL1 is not described; also called construct-2; fused form of CX3CR1-CX3CL1 with a cross-linking disulfide bond; source: HighFive insect cells, coexpressed with …
T2 sequence: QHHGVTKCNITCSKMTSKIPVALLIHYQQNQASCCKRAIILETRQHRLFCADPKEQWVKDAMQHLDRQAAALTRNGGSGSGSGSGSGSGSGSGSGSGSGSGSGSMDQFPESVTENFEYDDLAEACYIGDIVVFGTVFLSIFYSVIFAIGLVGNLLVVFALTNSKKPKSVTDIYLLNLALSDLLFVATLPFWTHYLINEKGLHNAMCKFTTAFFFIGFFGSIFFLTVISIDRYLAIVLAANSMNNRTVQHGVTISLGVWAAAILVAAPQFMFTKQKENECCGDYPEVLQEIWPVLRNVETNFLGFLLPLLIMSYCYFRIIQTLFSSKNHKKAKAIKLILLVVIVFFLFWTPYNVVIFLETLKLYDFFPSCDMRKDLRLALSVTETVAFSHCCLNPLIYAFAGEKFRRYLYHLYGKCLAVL

B1: CX3CL1 (residues 1 to 76, G35C) as it stands in construct-2 (ligand, UniProt P78423 25-100, looked up)
chain: QHHGVTKCNITCSKMTSKIPVALLIHYQQNQASCCKRAIILETRQHRLFCADPKEQWVKDAMQHLDRQAAALTRNG
modifications: pyroglutamate at 1 (pE1)
notes: CX3CL1 chemokine domain, residues 1 to 76; numbers count on: the mature protein (pE1 is residue 1); Written alone for the pair CX3CL1 with CX3CR1; also called chemokine CX3CL1; source: HighFive insect cells, part of the fusion construct-2, purified as complex (Strep-Tactin, SEC)
B2: human dominant negative Gαi1 (DNGαi1) with S47C, G202T, G203A, E245A and A326S (natural protein)
chain: MGCTLSAEDKAAVERSKMIDRNLREDGEKAAREVKLLLLGAGESGKCTIVKQMKIIHEAGYSEEECKQYKAVVYSNTIQSIIAIIRAMGRLKIDFGDSARADDARQLFVLAGAAEEGFMTAELAGVIKRLWKDSGVQACFNRSREYQLNDSAAYYLNDLDRIAQPNYIPTQQDVLRTRVKTTGIVETHFTFKDLHFKMFDVTAQRSERKKWIHCFEGVTAIIFCVALSDYDLVLAEDEEMNRMHASMKLFDSICNNKWFTDTSIILFLNKKDLFEEKIKKSPLTICYPEYAGSNTYEEAAAYIQCQFEDLNKRKDTKEIYTHFTCSTDTKNVQFVFDAVTDVIIKNNLKDCGLF
notes: source: HighFive insect cells, coexpressed with the receptor and Gβ1/Gγ2, purified as complex (Strep-Tactin, SEC)
B3: Modified human CX3CR1 (residues 1 to 315) with three mutations (I120L, C221S, M250V) and a C-terminal Twin-Strep-tag (receptor, UniProt P49238 1-315, looked up)
chain: T1 sequence (looked up) with C176L
notes: CX3CR1, human, residues 1 to 315 (40 residues C316 to L355 truncated from the C terminus); also called construct-1; engineered construct; source: HighFive insect cells, coexpressed with DNGαi1 and Gβ1/Gγ2, purified as complex (Strep-Tactin, SEC); not shown: Twin-Strep-tag, C-terminal, kept

Substitutions are numbered along the chain they refer to. Names may count otherwise.

Common to all, as to settings: both partners purified
Experiment [1] concerns the target T1, CX3CR1 (residues 1 to 315; I120L, …). The experiment can be described thus: cryo-EM structure; CX3CL1-bound CX3CR1-Gi1 complex; construct-2 (CX3CL1 fused to CX3CR1, disulfide G35C-L176C), DNGαi1 and Gβ1/Gγ2 coexpressed in HighFive cells and purified together (Strep-Tactin, SEC) in LMNG/CHS; 25 mM Hepes pH 7.5, 150 mM NaCl; apyrase treated.
Experiment [2] deals with T2, Modified CX3CL1-CX3CR1 fusion followed …. Described as above.
In experiment [3] the target is B2. Briefly: cryo-EM structure; ligand-free CX3CR1-Gi1 complex; construct-1, DNGαi1 and Gβ1/Gγ2 coexpressed in HighFive cells and purified together (Strep-Tactin, SEC) in LMNG/GDN/CHS; 25 mM Hepes pH 7.5, 150 mM NaCl; apyrase treated.

The source of these data is paper PMC9242592, “Activation of the human chemokine receptor CX3CR1 regulated by cholesterol” (Science Advances, 2022).

Regarding B1, in experiment [1], the binding result is recorded as “binds”.
Consider B2, for which, in experiment [2], the binding result was “binds”.
For the molecule B3, the binding result in experiment [3] is on record as “binds”.
